The target of test [1] is T1, IsaA (immunodominant structure IsaA of Staphylococcus aureus) (Staphylococcus aureus, UniProt P99160 30-233, limits assumed).
T1 construct: The ELISA text calls it soluble recombinant IsaA; also called IsaA antigen; soluble recombinant IsaA
T1 sequence (looked up): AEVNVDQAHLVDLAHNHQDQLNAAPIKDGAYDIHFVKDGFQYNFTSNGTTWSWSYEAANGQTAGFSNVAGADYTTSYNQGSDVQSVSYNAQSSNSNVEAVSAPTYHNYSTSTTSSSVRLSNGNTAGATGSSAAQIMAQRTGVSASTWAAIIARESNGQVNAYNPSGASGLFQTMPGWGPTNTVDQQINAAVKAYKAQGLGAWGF
As to the kind of experiment: SPR (BIACORE 2000), UK66-2 captured via anti-Fab antibody, IsaA as analyte, 25 C, 1:1 Langmuir fit, two independent measurements. (In general: In SPR one partner is held on a chip, and binding of the other changes the refractive index at the surface.)

Test [2] concerns the target T1, IsaA (immunodominant structure IsaA of …). The test is described as follows: SPR (BIACORE 2000), UK66-2 captured via anti-Fab antibody, IsaA as analyte, 25 C, 1:1 Langmuir fit.

B1: antibody UK66-2 (antibody, V domains shown)
VH: EVQLLESGGGLVQPGGSLRLSCAASGFTFSNYYMSWVRQAPGKGLEWVSDINGNGGSTYYPDTVKGRFTISRDNSKNTLYLQMNSLRAEDTAVYYCVRRGGYYALDYWGQGTTVTVSS
VL: DVVMTQTPLSLSVTPGQPASISCRSSQSLVHINGNTYLHWYLQKPGQSPQLLIYRVSNRFSGVPDRFSGSGSGTDFTLKISRVEAEDVGVYYCSQSTHVPWTFGGGTKLELKR
notes: In the SPR assay it was captured by an anti-Fab antibody; also called anti-IsaA antibody UK66-2
In general, Kd refers to the equilibrium constant for the complex coming apart. The koff is a measure of how fast the partners let go of each other. A higher koff goes with fast dissociation. A word on the kon: it is the second-order rate constant of association. In test [1], B1 displayed a Kd of 4.8 nM. For the same molecule, in test [2], the koff was found to be 0.0018 s⁻¹ and the kon was 370000 M⁻¹ s⁻¹.
